Results as given in publication PMC7609953, “Expression, Purification, Refolding, and Characterization of a Neverland Protein From Caenorhabditis elegans” (Frontiers in Bioengineering and Biotechnology, 2020).

Target: the molecule itself
Assay: SEC; Superdex200 Increase 10/300 GL, 20 mM Tris-HCl, 150 mM NaCl, 1 mM DTT, pH 8.0, 1 ml/min; aldolase (158 kDa) and conalbumin (75 kDa) as calibration proteins; oligomeric state of the refolded protein

B1: Refolded His-tagged neverland protein from Caenorhabditis elegans (His_CeNVD) (enzyme)
chain: RQLERLKLLRRVGDMPPVFPNGWYCVCESEKLANNQIMEITVLGQFLSLIRSESGAVYITDSYCPHIGANFNIGGRVVRDNCIQCPFHGWIFSAETGKCVEVPYDEGRIPEQAKVTTWPCIERNNNIYLWYHCDGAEPEWEIPEITEITDGFWHLGGRTEHEVMCHIQEIPENGADIAHLNYLHKSAPPVTKGSDIIKTDLSDPQPAVQHVWDGKWEVKSEEDRHCGVMHLNQFMTFWGYKVPLTSSKLVAEQHGPGIVHMLFDFGIWGKGVVFQTVTPEEALLQRVRFRIFSNIPWFFVKFFMTVEAMQFERDVFIWSNKKYIKSPLLVKNDGPIQKHRRWFSQFYTENSPKMLKDGSLSNQAKSIFDW
- stoichiometry N: 3
